Read-outs that look alike come from different tables or passages of the source.
Tests used:
Experiment in all cases: 125I-NDP-MSH competition, HEK293 membranes
[1] = molecular target: melanocortin 1 receptor (MC1R) (UniProt Q01726)
[2] = molecular target: melanocortin 1 receptor (MC1R) (UniProt Q01726); remark: listed apart in the source
[3] = molecular target: melanocortin 1 receptor (MC1R) (UniProt Q01726); remark: listed apart in the source
[4] = molecular target: melanocortin 5 receptor (MC5R) (UniProt P33032)
Sequence of melanocortin 5 receptor (MC5R) (P33032 whole entry): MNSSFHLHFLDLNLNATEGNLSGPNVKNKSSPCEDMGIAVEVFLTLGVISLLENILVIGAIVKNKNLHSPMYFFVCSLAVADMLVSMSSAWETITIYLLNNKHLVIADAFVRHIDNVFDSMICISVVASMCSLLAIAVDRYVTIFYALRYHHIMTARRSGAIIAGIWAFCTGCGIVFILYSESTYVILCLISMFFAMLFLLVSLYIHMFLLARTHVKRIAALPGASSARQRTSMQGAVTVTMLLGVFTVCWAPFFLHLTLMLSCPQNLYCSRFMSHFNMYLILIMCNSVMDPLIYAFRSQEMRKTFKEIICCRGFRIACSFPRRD

Sequence of melanocortin 1 receptor (MC1R) (Q01726 whole entry): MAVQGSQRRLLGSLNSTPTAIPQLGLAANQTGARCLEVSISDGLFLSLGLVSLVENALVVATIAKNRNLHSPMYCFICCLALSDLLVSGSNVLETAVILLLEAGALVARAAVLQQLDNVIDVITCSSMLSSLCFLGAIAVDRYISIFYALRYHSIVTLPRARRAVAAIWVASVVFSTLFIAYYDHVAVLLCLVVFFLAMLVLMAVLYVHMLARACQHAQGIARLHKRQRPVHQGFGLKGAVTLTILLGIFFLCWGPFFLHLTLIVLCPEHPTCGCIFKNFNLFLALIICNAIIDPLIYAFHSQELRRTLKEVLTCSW

retro-inverso α-MSH (peptide)
Ki [1]: 4 nM
Ki [2]: 4.1 nM
Ki [3]: 4.6 nM
Ki [4]: 25000 nM
